Experimental findings from patent US20240076396A1 (Regeneron, published 2024) are described below.

This assay deals with human GITR-L (6His.GCN4.G4Sx3.hGITR-L) (human, UniProt Q9UNG2 52-177). As to the kind of experiment: ELISA: hGITR.mmH (3.4 pM to 200 nM) on plate-coated hGITR-L, anti-cMyc-HRP detection. Here is the method:
FIG. 13 depicts effects of anti-GITR antibody on human GITR binding to human GITR-L. Binding of human GITR protein, hGITR.mmH, at a range of concentrations (3.4 pM to 200 nM) to immobilized human GITR-L was evaluated by ELISA and EC₅₀ values for binding were determined. A fixed concentration of recombinant hGITR.mmH (1.5 nM), based on the EC₅₀ values calculated for binding to hGITR-L, was pre-incubated with mAb1, or an IgG1 isotype control at a range of concentrations (51 pM to 3 μM) and added to wells containing immobilized human GITR-L to determine the ability of the antibodies to block hGITR.mmH binding to immobilized human GITR-L. Binding of hGITR.mmH was detected with an HRP-conjugated cMyc antibody using TMB substrate, and the OD₄₅₀ was measured by spectrophotometry.
The binding of recombinant hGITR to its ligand, hGITR-L, was determined using an enzyme-linked immunosorbent assay (ELISA)-based binding assay. […] Plate-bound hGITR.mmH was detected with horseradish peroxidase (HRP) conjugated goat anti-cMyc antibody at 0.33 μg/ml and visualized using the colorimetric HRP substrate 3-3′, 5-5′-tetramethylbenzidine (TMB) according to the manufacturer's recommended procedures. Absorbance data at 450 nm (OD₄₅₀) were plotted as a function of the concentration of recombinant hGITR.mmH. […]
(In general: An ELISA detects its analyte on a solid surface through an enzyme-linked reagent.)

human GITR-L (6His.GCN4.G4Sx3.hGITR-L), sequence (Q9UNG2 52-177): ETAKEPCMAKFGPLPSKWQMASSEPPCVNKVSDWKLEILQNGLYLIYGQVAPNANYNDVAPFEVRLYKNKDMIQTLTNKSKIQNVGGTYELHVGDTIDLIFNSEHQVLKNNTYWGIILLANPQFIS

B1: hGITR.mmH (soluble monomeric recombinant human GITR ectodomain protein) (receptor)
chain: QRPTGGPGCGPGRLLLGTGTDARCCRVHTTRCCRDYPGEECCSEWDCMCVQPEFHCGDPCCTTCRHHPCPPGQGVQSQGKFSFGFQCIDCASGTFSGGHEGHCKPWTDCTQFGFLTVFPGNKTHNAVCVPGSPPAEPEQKLISEEDLGGEQKLISEEDLHHHHHH
notes: also called monomeric human GITR
What is called EC50 is the concentration at which the effect is half-maximal. In the case of B1, the EC50 turned out to be 2.05 nM.
